One substance from patent publication US20090060915A1 can be followed below.

Common to all, as to test: cell-based or functional assay
Assay [1] addresses p130-angiomotin (Homo sapiens (Human)) (UniProt Q4VCS5).
The target in assay [2] is endogenous angiomotin of bovine capillary endothelial (BCE) cells (p80- and p130-isoforms) (bovine).
Assay [3] has as its target p80-angiomotin (Homo sapiens (Human)) (UniProt Q4VCS5).

In assay [1], “Human angiostatin (kringle 1-4) (from UniProt P00747 99-459) (ligand)” had a decrease in bFGF-stimulated migration of MAE cells expressing p130-angiomotin, Boyden chamber, angiostatin 5 ug/ml of 160%; a decrease in motility of CHO cells expressing p130-angiomotin, Boyden chamber of 50%; an invasion of Matrigel by human cytotrophoblasts, angiostatin 5 ug/ml of 3 fold. Also, the decrease in bFGF-stimulated migration of hTERT+-BCE cells, migration chamber assay in assay [2] is 85%. For the same substance, in assay [3], the decrease in bFGF-stimulated migration of MAE cells expressing p80-angiomotin, Boyden chamber, angiostatin 5 ug/ml is 175%; the decrease in motility of CHO cells expressing p80-angiomotin, Boyden chamber stood at 50%; the invasion of Matrigel by human cytotrophoblasts, angiostatin 5 ug/ml amounted to 3 fold.
